Results as given in publication PMC8602370.
Several values for one entry are separate records, joined by “and”; a condition that tells them apart may be missing. Identical values can stand only once.

Assays:
[1] = biological target: PARP1 (residues 1 to 1014), P09874; assay: SPR; biotinylated DNA SSB captured on a streptavidin chip, PARP1 (40 nM) flowed on to form a PARP1/DNA complex, then HPF1 injected at 62.5-2000 nM with 5 µM EB47 in the buffer; 25 mM HEPES pH 7.4, 250 mM NaCl, 0.1 mM TCEP, 1 mM EDTA, 0.05% Tween20; 1:1 model, steady-state plateaus and kinetic fit; details: remark: other sources report otherwise
[2] = biological target: PARP1 (residues 1 to 1014), P09874; assay: as above; details: remark: other sources report otherwise; remark: listed apart in the source

Sequence of PARP1 (residues 1 to 1014), P09874 (P09874 whole entry, the tested form may be a part): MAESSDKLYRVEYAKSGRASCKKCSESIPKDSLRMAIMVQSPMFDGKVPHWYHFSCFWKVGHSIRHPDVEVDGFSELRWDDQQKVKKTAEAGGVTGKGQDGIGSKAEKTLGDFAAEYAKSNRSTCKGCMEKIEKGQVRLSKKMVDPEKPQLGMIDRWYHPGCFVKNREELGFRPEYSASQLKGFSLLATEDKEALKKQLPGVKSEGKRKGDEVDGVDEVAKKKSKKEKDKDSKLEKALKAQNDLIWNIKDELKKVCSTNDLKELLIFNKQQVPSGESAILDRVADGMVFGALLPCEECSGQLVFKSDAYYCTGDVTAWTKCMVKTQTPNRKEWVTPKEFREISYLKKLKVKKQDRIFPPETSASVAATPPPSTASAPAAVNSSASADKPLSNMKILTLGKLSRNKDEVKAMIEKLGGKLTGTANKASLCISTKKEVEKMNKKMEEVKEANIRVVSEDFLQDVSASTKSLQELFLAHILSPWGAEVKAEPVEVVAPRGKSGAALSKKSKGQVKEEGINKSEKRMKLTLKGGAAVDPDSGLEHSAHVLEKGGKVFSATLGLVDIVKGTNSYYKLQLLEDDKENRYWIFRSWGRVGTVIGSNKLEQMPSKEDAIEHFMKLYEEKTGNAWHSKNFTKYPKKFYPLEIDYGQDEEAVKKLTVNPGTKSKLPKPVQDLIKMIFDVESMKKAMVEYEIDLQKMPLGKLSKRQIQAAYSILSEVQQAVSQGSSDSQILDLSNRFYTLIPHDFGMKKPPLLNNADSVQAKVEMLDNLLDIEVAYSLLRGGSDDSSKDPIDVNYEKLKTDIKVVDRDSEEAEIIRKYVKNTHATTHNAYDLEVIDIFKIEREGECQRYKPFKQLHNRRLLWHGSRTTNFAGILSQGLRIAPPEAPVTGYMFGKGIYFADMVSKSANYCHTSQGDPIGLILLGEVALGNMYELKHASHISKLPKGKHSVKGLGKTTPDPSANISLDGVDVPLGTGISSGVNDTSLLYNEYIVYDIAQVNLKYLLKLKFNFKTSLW

- Kd [1]: 480 nM and 617 nM
- koff [1]: 0.071 s⁻¹
- kon [1]: 112000 M⁻¹ s⁻¹
- Kd [2]: 540 nM and 550 nM
- koff [2]: 0.06 s⁻¹
- kon [2]: 100000 M⁻¹ s⁻¹
B1: Histone PARylation Factor 1 (HPF1), Q9NWY4 1-346 (natural protein)
chain: MVGGGGKRRPGGEGPQCEKTTDVKKSKFCEADVSSDLRKEVENHYKLSLPEDFYHFWKFCEELDPEKPSDSLSASLGLQLVGPYDILAGKHKTKKKSTGLNFNLHWRFYYDPPEFQTIIIGDNKTQYHMGYFRDSPDEFPVYVGINEAKKNCIIVPNGDNVFAAVKLFLTKKLREITDKKKINLLKNIDEKLTEAARELGYSLEQRTVKMKQRDKKVVTKTFHGAGLVVPVDKNDVGYRELPETDADLKRICKTIVEAASDEERLKAFAPIQEMMTFVQFANDECDYGMGLELGMDLFCYGSHYFHKVAGQLLPLAYNLLKRNLFAEIIEEHLANRSQENIDQLAA
